These results are taken from patent publication US20230272055A1 (Incyte, published 2023).

To fix the notation:
B1: anti-mutCALR antibody clone 8 (antibody, human IgG1, lambda, V domains shown)
VH: QVQLVQSGAEVKKPGSSVKVSCKVSGYTLTELSMQWVRQAPGKGLEWMGGFDPDDGETMYAEKFQGRLTVTEDTSTDTVYMELRSLTSEDTALYFCATSPGYDFFDYWGQGTLVTVSS
VL: SYELTQPPSVSVAPGQTARITCGGNNIGSKSVHWYQQKPGQAPVLVVYDDSDRPSGIPERFSGSNSGRTATLTISRVEAGDEADYHCQVWDSSSDHLVFGGGTKLTVLG
notes: human IgG1; group 1
B2: anti-mutCALR antibody clone 26 (antibody, human IgG1, lambda, V domains shown)
VH: EVQLVQSGAEVKKPGASVKVSCKVSGYTLTELSMQWVRQAPGKGLEWMGGFDPDDGETMYAEKFQGRLTVTEDTSTDTVYMELRSLTSEDTALYFCATSPGYDFFDYWGQGTLVTVSS
VL: SYVLTQPPSVSVAPGQTARITCGGNNIGSKSVHWYQQKPGQAPVLVVYDDSDRPSGIPERFSGSNSGNTATLTISRVEAGDEADYYCQVWDSSIDHLIFGGGTKVTVLG
notes: human IgG1; group 1
B3: anti-mutCALR antibody clone 12 (antibody, human IgG1, lambda, V domains shown)
VH: EVQLVQSGAEVKKPGASVKVSCKVSGYTLTELSMQWVRQAPGKGLEWMGGFDPDGGETMYAEKFQGRLTVTEDTSTDTVYMELRSLTSEDTALYFCATSPGYDFFDYWGQGTLVTVSS
VL: SYVLTQPPSVSVAPGQTARVSCGGNNIGSKSVNWYRQKPGQAPVLVIYDDSDRPSGIPERFSGSNSGNTATLTINRVEAGDEADYYCQVWDSSNDLLIFGGGTKLTVLG
notes: human IgG1; group 1
B4: anti-mutCALR antibody clone 27 (antibody, human IgG1, lambda, V domains shown)
VH: EVQLVQSGAEVKKPGASVKVSCKVSGYTLTELSMQWVRQAPGKGLEWMGGFDPDDGETMYAEKFQGRLTVTEDTSTDTVYMELRSLTSEDTALYFCATSPGYDFFDYWGQGTLVTVSS
VL: SYVLTQPPSVSVAPGQTARITCGGNNIGIKSVHWYQQKPGQAPVLVVYDDRDRPSGIPERFSGSNSGNTATLTINRVEAGDEADYYCQVWDSSNDLLIFGGGTKLTVLG
notes: human IgG1; group 1
B5: anti-mutCALR antibody clone 15 (antibody, human IgG1, lambda)
heavy: not shown
light: SYELTQPPSVSVAPGKTARITCGGDNIGSKSVHWYQQKPGQAPVLVVYDDSDRPSGIPERFSGSNSGNTATLTINRVEAGDEADYYCQVWDSSNDLLIFGGGTKLTVLGQPKAAPSVTLFPPSSEELQANKATLVCLISDFYPGAVTVAWKADSSPVKAGVETTTPSKQSNNKYAASSYLSLTPEQWKSHRSYSCQVTHEGSTVEKTVAPTECS
notes: human IgG1; group 1
B6: anti-mutCALR antibody clone 23 (antibody, human IgG1, lambda, V domains shown)
VH: EVQLVQSGAEVKKPGASVKVSCKVSGYTLTELSMQWVRQAPGKGLEWMGGFDPDDGETMYAEKFQGRLTVTEDTSTDTVYMELRSLTSEDTALYFCATSPGYDFFDYWGQGTLVTVSS
VL: SYVLTQPPSVSVAPGQTARITCGGNNIGIKSVHWYQQKPGQAPVLVVYDDSDRPSGIPERFSGSNSGNTATLTINRVEAGDEADYYCQVWDSSNDLLIFGGGTKLTVLG
notes: human IgG1; group 1
B7: anti-mutCALR antibody clone 19 (antibody, human IgG1, lambda, V domains shown)
VH: EVQLVQSGAEVKKPGASVKVSCKVSGYTLTELSMQWVRQAPGKGLEWMGGFDPDDGETMYAEKFQGRLTVTEDTPTDTVYMELRSLTSEDTALYFCATSPGYDFFDYWGQGTLVTVSS
VL: SYVLTQPLSVSVALGQTARITCGGSNIGDIRVHWYQQKPGQAPVLVVYDDSDRPSGIPERFSGSNSGNTATLTINRVEAGDEADYYCQVWDSSNDLLIFGGGTKLTVLG
notes: human IgG1; group 1
B8: anti-mutCALR antibody clone 24 (antibody, human IgG1, lambda, V domains shown)
VH: EVQLVQSGAEVKKPGASVKVSCKVSGYTLTELSMQWVRQAPGKGLEWMGGFDPDDGETMYAEKLQGRLTVTEDTSTDTVYMELRSLTSEDTALYFCATSPGYDFFDYWGQGTLVTVSS
VL: SYVLTQPPSVSVAPGKTARITCGGNNIGSKSVHWYQQKPGQAPVLVVYDDSDRPSGIPERFSGSNSGNTATLTINRVEAGDEADYYCQVWDSSNDLLIFGGGTKLTVLG
notes: human IgG1; group 1
B9: anti-mutCALR antibody clone 28 (antibody, human IgG1, lambda, V domains shown)
VH: EVQLVQSGAEVKKPGASVKVSCKVSGYTLTELSMQWVRQAPGKGLEWMGGFDPDDGETMYAEKFQGRLTVTEDTSTDTVYMELRSLTSEDTALYFCATSPGYDFFDYWGQGTLVTVSS
VL: SYELTQPPSVSVAPGQTARITCGGNNIGSKSVHWYQQKPGQAPVLVVYDDSDRPSGIPERFSGSNSGNTATLTISRVEAGDEADYYCQVWDADSDQLIFGGGTKLTVLG
notes: human IgG1; group 1
B10: anti-mutCALR antibody clone 25 (antibody, human IgG1, lambda, V domains shown)
VH: EVQLVQSGAEVKKPGASVKVSCKVSGYTLTELSMQWVRQAPGKGLEWMGGFDPDDGETMYAEKFQGRLTVTEDTSTDTVYMELRSLTSEDTALYFCATSPGYDFFDYWGQGTLVTVSS
VL: SYELTQPPSVAVAPGQTARITCGGNNIGRKAVHWYQQKPGQAPVLVVYDDSDRPSGIPERFSGSNSGNTATLTINRVEAGDEADYYCQVWDSSNDLLIFGGGTKLTVLG
notes: human IgG1; group 1
B11: anti-mutCALR antibody clone 22 (antibody, human IgG1, lambda, V domains shown)
VH: EVQLVQSGAEVKKPGASVKVSCKVSGYTLTELSMQWVRQAPGKGLEWMGGFDPDDGETMYAEKFQGRLTVTEDTSTDTVYMELRSLTSEDTALYFCATSPGYDFFDYWGQGTLVTVSS
VL: SYVLTQPPSVSVAPGKTARITCGGNNIGSKNVHWYQQKPGQAPVLVVYDDSDRPSGIPERFSGSNSGNTATLTINRVEAGDEADYYCQVWDSSNDLLIFGGGTKLTVLG
notes: human IgG1; group 1
B12: anti-mutCALR antibody clone 20 (antibody, human IgG1, lambda, V domains shown)
VH: EVQLVQSGAEVKKPGASVKVSCKVSGYTLTELSMQWVRQAPGKGLEWMGGFDPDDGETMYAEKFQGRLTVTEDTSTDTVYMELRSLTSEDTALYFCATSPGYDFFDYWGQGTLVTVSS
VL: SYVLTQPPSVSVAPGKTARITCGGNNIGSKGVHWYQQKPGQAPVLVVYDDSDRPSGIPERFSGSNSGNTATLTINRVEAGDEADYYCQVWDSSNDLLIFGGGTKLTVLG
notes: human IgG1; group 1
B13: anti-mutCALR antibody clone 9 (antibody, human IgG1, lambda, V domains shown)
VH: EVQLVQSGAEVKKPGASVKVSCKVSGYTLTELSMQWVRQAPGKGLEWMGGFDPDDGETMYAEKFQGRLTVTEDTSTDTVYMELRSLTSEDTALYFCATSPGYDFFDYWGQGTLVTVSS
VL: SYVLTQPPSVSVAPGQTARIPCGGNNIGSKSVHWYQQKPGQAPVLVVYDDRDRPSGIPERFSGSNSGNTATLTINRVEAGDEADYYCQVWDSSNDLLIFGGGTKLTVLG
notes: human IgG1; group 1
B14: anti-mutCALR antibody clone 10 (antibody, human IgG1, lambda, V domains shown)
VH: EVQLVQSGAEVKKPGASVKVSCKVSGYTLTELSMQWVRQAPGKGLEWMGGFDPDDGETMYAEKFQGRLTVTEDTSTDTVYMELRSLTSEDTALYFCATSPGYDFFDYWGQGTLVTVSS
VL: SYELTQPPSVSVAPGQTARIPCGGNNIGSEGVHWYQQKPGQAPVLVVYDDSDRPSGIPERFSGSNSGNTATLTISRVEAGDEADYYCQVWDSSNDLLIFGGGTKLTVLG
notes: human IgG1; group 1
B15: anti-mutCALR antibody clone 13 (antibody, human IgG1, lambda, V domains shown)
VH: QVQLVQSGAEVKKPGASVKVSCKVSGYTLTELSMQWVRQAPGKGLEWMGGFDPDDGETMYAEKFQGRLTVTEDTSTDTVYMELRSLTSEDTALYFCATSPGYDFFDYWGQGTLVTVSS
VL: not shown
notes: human IgG1; group 1
B16: anti-mutCALR antibody clone 17 (antibody, human IgG1, lambda)
heavy: not shown
light: SYVLTQPPSVSVAPGQTARITCGGSDIGDEIVHWYQQKPGQAPVLVVYDDSDRPSGIPERFSGSNSGNTATLTISRAQAGDEADYYCQVWDSSSDHLIFGGGTKLTVLGQPKAAPSVTLFPPSSEELQANKATLVCLISDFYPGAVTVAWKADSSPVKAGVETTTPSKQSNNKYAASSYLSLTPEQWKSHRSYSCQVTHEGSTVEKTVAPTECS
notes: human IgG1; group 1
B17: anti-mutCALR antibody clone 21 (antibody, human IgG1, lambda, V domains shown)
VH: EVQLVQSGAEVKKPGASVKVSCEVSGYTLTELSMQWVRQAPGKGLEWMGGFDPDDGETMYAEKFQGRLTVTEDTSTDTVYMELRSLTSEDTALYFCATSPGYDFFDYWGQGTLVTVSS
VL: SYVLTQPPSVSVAPGQTARVSCGGNNIGSKSVNWYRQKPGQAPVLVIYDDSDRPSGIPERFSGSNSGNTATLTISRVEAGDEADYYCQVWDSSNDLLIFGGGTKLTVLG
notes: human IgG1; group 1
B18: anti-mutCALR antibody clone 16 (antibody, human IgG1, lambda, V domains shown)
VH: EVQLVQSGAEVKKPGASVKVSCKVSGYTLTELSMQWVRQAPGKGLEWMGGFDPDDGETMYAEKFQGRLTVTEDTSTDTVYMELRSLTSEDTALYFCATSPGYDFFDYWGQGTLVTVSS
VL: SYVLTQPPSVSVAPGKTARITCGGNNTGSKSVHWYQQKPGQAPVLVVYDDSDRPSGIPERFSGSNSGNTATLTINRVEAGDEADYYCQVWDSSNDLLIFGGGTKLTVLG
notes: human IgG1; group 1
B19: anti-mutCALR antibody clone 29 (antibody, human IgG1, lambda, V domains shown)
VH: EVQLVQSGAEVKKPGASVKVSCKVSGYTLTELSMQWVRQAPGKGLEWMGGFDPDDGETMYAEKFQGRLTVTEDTSTDTVYMELRSLTSEDTALYFCATSPGYDFFDYWGQGTLVTVSS
VL: SYVLTQPPSVSVAPGKTARITCGGNNIGSKSVHWYQQKPGQAPVLVVYDDSDRPSGIPERFSGSNSGNTATLTISRVEAGDEADYYCQVWDSSSDLLIFGGGAKLTVLG
notes: human IgG1; group 1
B20: anti-mutCALR antibody clone 18 (antibody, human IgG1, lambda, V domains shown)
VH: EVQLVQSGAEVKKPGASVKVSCKVSGYTLTELSMQWVRQAPGKGLEWMGGFDPDDGETMYAEKFQGRLTVTEDTSTDTVYMELRSLTSEDTALYFCATSPGYDFFDYWGQGTLVTVSS
VL: SYVLTQPPSVSVAPGKTARITCGGNNIGSKSVHWYQQKPGQAPVLVVYDDSDRPLGIPERFSGSNSGNTATLTINRVEAGDEADYYCQVWDSSNDLLIFGGGTKLTVLG
notes: human IgG1; group 1

This experiment concerns the target MBP protein (UniProt P0AEX9 27-392 = MBP). As to the kind of experiment: SPR (Biacore 8K), antibody captured on anti-human IgG (Fc), MBP injected. Here is the method:
Experiment 1: Recombinant MBP-mutCALR Type 1 fusion protein was custom made at Cepter (cepterbiopartners.com). Data for the interaction of antibodies with recombinant MBP-mutCALR Type 1 fusion protein were collected at 25° C. on a Biacore 8K instrument (Cytiva, Marlborough, Mass.), and all reagents were obtained from Cytiva unless otherwise specified. The experiments were conducted using Tris-buffered saline (pH 7.2), 0.005% Surfactant P20, 1 mM CaCl₂) as running buffer. To prepare the capture surfaces, anti-human IgG (Fc) antibodies (Product #29234600) was amine-coupled onto a CM4 chip (Product #BR100534) under standard conditions using an Amine Coupling Kit (Product #BR100050). […] The kinetics parameters were obtained by applying 1:1 binding model to fit the data from multiple-cycle injection experiments using Biacore Insight Evaluation software.
On to B1, for which the binding result is “no binding (tested: 250 nM)”. B2: the binding result is “no binding (tested: 250 nM)”. Under B3 stands “no binding (tested: 250 nM)”; under B4, “no binding (tested: 250 nM)”; under B5, “no binding (tested: 250 nM)”. Under B6 stands “no binding (tested: 250 nM)”.

As for B7, the binding result is listed as “no binding (tested: 250 nM)”. Under B8 stands “no binding (tested: 250 nM)”; under B9, “no binding (tested: 250 nM)”. Under B10 stands “no binding (tested: 250 nM)”; under B11, “no binding (tested: 250 nM)”. B12: the binding result was “no binding (tested: 250 nM)”. Under B13 stands “no binding (tested: 250 nM)”; under B14, “no binding (tested: 250 nM)”. For B15, the binding result is “no binding (tested: 250 nM)”. The value for B16 was “no binding (tested: 250 nM)”. For B17, the binding result is listed as “no binding (tested: 250 nM)”.

In the case of B18, the binding result is listed as “no binding (tested: 250 nM)”.

In the case of B19, the binding result was “no binding (tested: 250 nM)”. As to B20, the binding result was “no binding (tested: 250 nM)”.
